Fewer inactive variants are shown than the library holds.
B1: TPR 5TU (parent)
chain: GGAUCUUCUCGAUCUAACAAAAAAGACAAAUCUGCCACAAAGCUUGAGAGCAUCUUCGGAUGCAGAGGCGGCAGCCUUCGGUGGCGCGAUAGCGCCAACGUUCUCAACUAUGACACGCAAAACGCGUGCUCCGUUGAAUGGAGUUUAUCAUG

Variants of: B1
Assay: polymerase ribozyme fitness, log enrichment relative to wild type (log ratio); higher = more active; in vitro selection for triplet polymerase activity
Outline: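 Fitness is a logarithmic measure of how a genotype enriched relative to the wild type, with replicate averages weighted by inverse variance. The logarithm uses base 2, and enrichment came from Illumina sequencing of input and output libraries. Those libraries were PCR-built, transcribed mutants of each subunit of a heterodimeric triplet polymerase ribozyme, passed through one triplicate in vitro selection round that included frozen incubation at −7 °C, gel excision of extended constructs and streptavidin-bead capture. Genotypes were kept only if they had ≥10 input reads and ≥1 read per output.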

A40G G59A U78A G94A C108U and A41C G42A A49G G88C U135A cannot be ordered by “polymerase ribozyme fitness (log ratio)” value: ≤ -4.2 for the first, ≤ -4.2 for the second.

A40G C87U A115G and A40C G92A A97U are within 0.2 log units of each other in “polymerase ribozyme fitness (log ratio)” value: -3.19 for the first, -3.34 for the second.

First: A40G U56A G86A
Second: A40U A113C
The “polymerase ribozyme fitness (log ratio)” value of the first is higher: -3.13 for the first, -3.79 for the second.

Going from A40U C54U G70C G117U G128C A137G to A39G U56A G58U G141A, the “polymerase ribozyme fitness (log ratio)” value rises from ≤ -4.2 to -1.28.

Compared with A40U G117C, A39U A138C A150G is lower in “polymerase ribozyme fitness (log ratio)” value: -0.102 for the first, -4.1 for the second.

A39U U56A G62C C85A C95G U101A C123G G143C and A39G A49G C69U C123G G140C G141U cannot be ordered by “polymerase ribozyme fitness (log ratio)” value: ≤ -4.2 for the first, ≤ -4.2 for the second.

Going from A40C A89U C96U C114U G128C U145G to A40U C96U C118U, the “polymerase ribozyme fitness (log ratio)” value rises from ≤ -4.2 to -0.191.

Compared with A40G U109G, A40U U145A is higher in “polymerase ribozyme fitness (log ratio)” value: -3.14 for the first, -0.163 for the second.

A39G G70C G92C U135G U145G U148A and A40U G48C A64U G83A G143A cannot be ordered by “polymerase ribozyme fitness (log ratio)” value: ≤ -4.2 for the first, ≤ -4.2 for the second.

C38U G65U G71U U90C C114U U135C U146A and C38G G59C C63U G83U U90G G126U cannot be ordered by “polymerase ribozyme fitness (log ratio)” value: ≤ -4.2 for the first, ≤ -4.2 for the second.

Compared with A40U A147G, A41C C87U U102A U109C G136A A138U is lower in “polymerase ribozyme fitness (log ratio)” value: -3.6 for the first, ≤ -4.2 for the second.

Compared with A41C G50A A89U A113U A115G U146A, A40C G62U A97G C116G A122U is higher in “polymerase ribozyme fitness (log ratio)” value: -4.05 for the first, -1.6 for the second.

First: A40U U90G C118G G133C U148G
Second: A41C A52C C114U
The “polymerase ribozyme fitness (log ratio)” value of the first is lower: ≤ -4.2 for the first, -3.97 for the second.

Compared with C38U A49G G92U C103U G124U, C38U A52C U55G U56A A120C A121C is lower in “polymerase ribozyme fitness (log ratio)” value: -1.7 for the first, -2.04 for the second.

C38G G92A and A39U A49U are within 0.2 log units of each other in “polymerase ribozyme fitness (log ratio)” value: -4.14 for the first, -4.19 for the second.

Going from C38U C63U to A40C G141U, the “polymerase ribozyme fitness (log ratio)” value rises from 0.178 to 1.43.

Going from A41C U53A C63U C76A to A40C A89U A137C, the “polymerase ribozyme fitness (log ratio)” value rises from ≤ -4.2 to -3.94.

First: C38U G67A C69G G94A
Second: A39U A52C C57U G58C
The “polymerase ribozyme fitness (log ratio)” value of the first is lower: ≤ -4.2 for the first, -3 for the second.

First: C38U G50U G80C C85U
Second: A40U U45G
The “polymerase ribozyme fitness (log ratio)” value of the first is lower: ≤ -4.2 for the first, -0.54 for the second.

Going from A40C G65A A73U A98U to A39C G83U A138C, the “polymerase ribozyme fitness (log ratio)” value rises from ≤ -4.2 to -4.18.

Going from C38U G83A C99G to C38U U56A A60G U78A C79G C85A A119C U135G U151A, the “polymerase ribozyme fitness (log ratio)” value falls from -3.15 to ≤ -4.2.

Compared with A40C C99U A137U U146A, C38U G62C is higher in “polymerase ribozyme fitness (log ratio)” value: -4.14 for the first, -2.41 for the second.

Compared with C38U C54A C99U C132U, A40C A138G U144G is lower in “polymerase ribozyme fitness (log ratio)” value: -2.38 for the first, -3.92 for the second.

First: A39U G46U A47C A52C C87U A98G U104G C114A C125U
Second: A39G U56A G94U A120U G141C
The “polymerase ribozyme fitness (log ratio)” value of the first is lower: ≤ -4.2 for the first, -3.09 for the second.

A39C G86A G152U and A39U A52U G83A U109G cannot be ordered by “polymerase ribozyme fitness (log ratio)” value: ≤ -4.2 for the first, ≤ -4.2 for the second.

C38U U56A G68A C95A and C38U A73U A107C C108U A115G cannot be ordered by “polymerase ribozyme fitness (log ratio)” value: ≤ -4.2 for the first, ≤ -4.2 for the second.

A40G G71C G74U C93U A98G and A41C C43U A97G C108U G140U cannot be ordered by “polymerase ribozyme fitness (log ratio)” value: ≤ -4.2 for the first, ≤ -4.2 for the second.

C38U C43U A73U C79A U90C U148G and A40G A60C C105G A138C A147U cannot be ordered by “polymerase ribozyme fitness (log ratio)” value: ≤ -4.2 for the first, ≤ -4.2 for the second.

Going from A40U A64G C75U A97G to C38U U56A C63A G117C A121U, the “polymerase ribozyme fitness (log ratio)” value rises from ≤ -4.2 to 0.398.

A41C C76G C96U and A40C A60U G81C A138G C149A cannot be ordered by “polymerase ribozyme fitness (log ratio)” value: ≤ -4.2 for the first, ≤ -4.2 for the second.

Going from A40C U55A to A41C C123U G126A U135G, the “polymerase ribozyme fitness (log ratio)” value falls from 0.494 to -3.4.

A41C G59A C69A G84A A107U A137U and A40C U44A U55A C57A C76A cannot be ordered by “polymerase ribozyme fitness (log ratio)” value: ≤ -4.2 for the first, ≤ -4.2 for the second.

First: A39G G84A
Second: A39U G86A U102G C103G A106C
The “polymerase ribozyme fitness (log ratio)” value of the first is higher: -1.84 for the first, ≤ -4.2 for the second.

First: C38U A47C U102C A119U
Second: A40C A47U A60U
The “polymerase ribozyme fitness (log ratio)” value of the first is lower: -3.66 for the first, -1.07 for the second.

Going from C38U C85U C131G to A39C C108U, the “polymerase ribozyme fitness (log ratio)” value falls from -3.56 to -3.8.

First: A40U A41C A60G A98U A150U
Second: A39G C54U G74A G88A U90A A137G
The “polymerase ribozyme fitness (log ratio)” value of the first is higher: 0.591 for the first, ≤ -4.2 for the second.

Compared with C38U C85U U127A, C38U A66G is lower in “polymerase ribozyme fitness (log ratio)” value: -3.87 for the first, ≤ -4.2 for the second.

Going from C38U C57U A106U U146G to A40U G83A C95A A115U G128U C129A, the “polymerase ribozyme fitness (log ratio)” value falls from -2.36 to ≤ -4.2.

Going from C38U U61A to A40C C85U G124U, the “polymerase ribozyme fitness (log ratio)” value rises from -0.395 to -0.182.

First: A40G U56A C99U
Second: A39C G48C G59U A60U A66G G71A C96U U101G U151A
The “polymerase ribozyme fitness (log ratio)” value of the first is higher: -2.66 for the first, ≤ -4.2 for the second.

A40C A106U A138G and A40U C57A A73U C95U U135G C149G cannot be ordered by “polymerase ribozyme fitness (log ratio)” value: ≤ -4.2 for the first, ≤ -4.2 for the second.

Going from A40G G86U A120G to C38U A91U, the “polymerase ribozyme fitness (log ratio)” value falls from -3.99 to ≤ -4.2.

— the RNAGym collection of RNA variant scans (doi:10.1073/pnas.2313332121)
